From PMC10641069, “Intra- and inter-molecular regulation by intrinsically-disordered regions governs PUF protein RNA binding” (Nature Communications, 2023)
Entries after “also recorded” stand apart in the source; their conditions may differ.

Experiments:
FBF-2 RBD + CT = target: T1, FBF-2 RBD + CT (Caenorhabditis elegans, UniProt Q09312); experiment: ITC, peptide into FBF-2 RBD + CT, no RNA; format: binding, C. elegans; conditions: 20 °C, pH 7.4
T1 construct: A cDNA fragment encoding C. elegans FBF-2 RBD + CT (residues 164-632) was cloned into the pSMT3 vector; His6-SUMO (N, cleaved yes); made in house; host or cells: E. coli BL21-CodonPlus (DE3)-RIL
T1 sequence (Q09312 whole entry, looked up): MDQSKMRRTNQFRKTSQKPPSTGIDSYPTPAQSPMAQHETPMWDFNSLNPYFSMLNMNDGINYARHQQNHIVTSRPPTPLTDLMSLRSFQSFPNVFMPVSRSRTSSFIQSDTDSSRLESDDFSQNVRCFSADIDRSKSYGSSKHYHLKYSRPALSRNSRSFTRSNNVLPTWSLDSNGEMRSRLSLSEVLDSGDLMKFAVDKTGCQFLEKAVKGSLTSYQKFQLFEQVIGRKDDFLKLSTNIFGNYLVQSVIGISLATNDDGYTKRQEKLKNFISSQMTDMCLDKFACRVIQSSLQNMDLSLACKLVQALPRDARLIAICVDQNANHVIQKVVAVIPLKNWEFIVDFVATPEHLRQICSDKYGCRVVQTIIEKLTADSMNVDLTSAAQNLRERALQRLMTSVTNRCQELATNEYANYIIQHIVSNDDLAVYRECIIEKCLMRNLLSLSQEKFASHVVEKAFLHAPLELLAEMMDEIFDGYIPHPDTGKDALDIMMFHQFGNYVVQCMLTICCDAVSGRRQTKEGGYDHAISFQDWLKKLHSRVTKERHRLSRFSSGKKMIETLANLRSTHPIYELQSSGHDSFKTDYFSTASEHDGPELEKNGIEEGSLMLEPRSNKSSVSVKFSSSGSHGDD

gld-1 FBEa RNA = conditions: LST-1 peptide with FBF-2 RBD (no CT); cited from earlier work
From the text: LST-1 is expressed in GSCs in response to signaling from the stem cell niche. The LST-1 protein is largely unstructured (Fig. 1b), including an N-terminal region that is sufficient for self-renewal of GSCs[22]. This LST-1 IDR region harbors two PUF Interacting Motifs (PIMs), LST-1 A and LST-1 B, that interact with FBF-2, each with a KxxL sequence[17],[22]. Crystal structures of FBF-2 bound to LST-1 A or B identify a seven-residue core region, including the KxxL sequence, that binds to FBF-2 with similar peptide backbone structure[17],[18]. The two LST-1 PIMs are biologically redundant for ... || If the FBF-2 CT reduces RNA-binding affinity (Fig. 3b) and competes with LST-1 for binding (Fig. 2c, d), why then does FBF-2 depend on LST-1 to repress RNAs in nematodes? To address this question, we explored RNA-binding affinities of FBF-2 RBD + CT in the presence of either LST-1 A or LST-1 B (Fig. 6; Supplementary Table 3). In contrast to results with FBF-2 RBD alone[17],[18], both LST-1 A and LST-1 B increased the RNA-binding affinity of FBF-2 RBD + CT.

FBF-2 RBD+CT Loop6A = target: T2, FBF-2 RBD+CT Loop6A (Caenorhabditis elegans, UniProt Q09312, D594A/E592A/E597A/E599A/E604A/E605A); experiment: ITC, peptide into FBF-2 RBD + CT Loop6A, no RNA; format: binding, C. elegans; conditions: 20 °C, pH 7.4
T2 construct: A cDNA fragment encoding C. elegans FBF-2 RBD + CT (residues 164-632) was cloned into the pSMT3 vector; His6-SUMO (N, cleaved yes); made in house; host or cells: E. coli BL21-CodonPlus (DE3)-RIL (as for wild type)
Experimental: Experiments were performed at 20 °C using a MicroCal PEAQ-ITC Automated (Malvern Instruments) with a 200-μL standard cell and a 40-μL titration syringe. FBF-2 and LST-1 variants were prepared in a buffer of 20 mM HEPES pH 7.4, 150 mM NaCl, and 0.5 mM TCEP by gel filtration. LST-1 (100–400 µM) was titrated from the syringe into the cell containing FBF-2 (10–30 µM) in 2 µl aliquots. Experiments were performed in duplicate due to the limitation of the amount of protein needed. Data were analyzed using the MicroCal PEAQ-ITC Analysis Software (version 1.40) provided by the manufacturer with the one-site model (Table S3).
Supplementary Table 3. Protein interaction affinities, stoichiometries, and thermodynamic parameters between FBF-2 CT/LST-1 variants and FBF-2 measured by ITC. Two technical replicates (n=2 independent experiments) were performed for each analysis with similar results, and the values are shown for each replicate. Source data are provided as a Source Data file. […]
RBD+CT LST-1 A none Not detected
RBD FBF-2 CT none Not detected
1 Reported previously 18.

[1] = target: T3, FBF-2 RBD+CT;LST-1 A peptide (Caenorhabditis elegans;Caenorhabditis …, UniProt Q09312;P91820 164-632;19-50, |); experiment: EMSA; 150 uM LST-1 A; EMSA: FBF-2 in 20 mM HEPES pH 7.4, 150 mM NaCl, 0.5 mM TCEP mixed 1:1 with 5 nM final RNA in 10 mM HEPES pH 7.4, 0.01% Tween 20, 0.1 mg/ml BSA, 0.1 mg/ml yeast; conditions: protein: recombinant;recombinant; tags: none (His6-SUMO removed with Ulp1);none (His6-SUMO removed with Ulp1); copies: 1;1; label: 3'-Cy5
T3 sequence 1: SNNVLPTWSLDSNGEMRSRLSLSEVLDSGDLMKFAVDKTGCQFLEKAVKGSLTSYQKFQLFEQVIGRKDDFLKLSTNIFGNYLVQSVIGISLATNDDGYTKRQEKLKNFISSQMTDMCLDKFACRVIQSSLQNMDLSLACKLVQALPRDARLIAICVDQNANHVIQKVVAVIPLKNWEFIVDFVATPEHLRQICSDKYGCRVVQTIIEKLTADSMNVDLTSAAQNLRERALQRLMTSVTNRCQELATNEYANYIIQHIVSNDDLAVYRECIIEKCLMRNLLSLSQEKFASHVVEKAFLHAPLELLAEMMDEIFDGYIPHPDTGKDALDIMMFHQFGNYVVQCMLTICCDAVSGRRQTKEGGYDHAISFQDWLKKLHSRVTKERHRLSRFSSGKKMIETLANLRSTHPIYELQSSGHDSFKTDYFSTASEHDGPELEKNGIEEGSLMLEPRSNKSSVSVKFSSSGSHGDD
T3 sequence 2: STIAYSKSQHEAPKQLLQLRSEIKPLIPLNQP

T2 sequence (Q09312 164-632 E592A/D594A/E597A/E599A/E604A/E605A): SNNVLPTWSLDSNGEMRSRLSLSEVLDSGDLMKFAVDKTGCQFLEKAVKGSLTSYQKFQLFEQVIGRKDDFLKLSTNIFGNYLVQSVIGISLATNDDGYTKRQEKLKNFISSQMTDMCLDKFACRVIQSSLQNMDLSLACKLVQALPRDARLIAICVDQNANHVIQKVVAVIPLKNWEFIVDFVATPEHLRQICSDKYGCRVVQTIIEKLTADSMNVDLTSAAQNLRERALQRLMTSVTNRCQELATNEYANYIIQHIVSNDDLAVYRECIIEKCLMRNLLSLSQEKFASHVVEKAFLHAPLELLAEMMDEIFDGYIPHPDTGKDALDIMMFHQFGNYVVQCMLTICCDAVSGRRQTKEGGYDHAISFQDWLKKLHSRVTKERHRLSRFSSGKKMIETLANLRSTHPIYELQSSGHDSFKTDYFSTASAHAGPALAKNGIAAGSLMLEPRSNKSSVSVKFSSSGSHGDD

LST-1 B: LST-1 B peptide, residues 67–98, expressed in E. coli (SSSPQQRSGLRSQKLHLTYIEKNKRVRAMIPQ; left off: His6-SUMO, N-terminal, cleaved)
-T∆S (FBF-2 RBD + CT; replicate 1): 2.08 kcal/mol
∆G (FBF-2 RBD + CT; replicate 1): -7.62 kcal/mol
∆H (FBF-2 RBD + CT; replicate 1): -9.7 kcal/mol
-T∆S (FBF-2 RBD + CT; replicate 2): 2.27 kcal/mol
∆G (FBF-2 RBD + CT; replicate 2): -7.36 kcal/mol
∆H (FBF-2 RBD + CT; replicate 2): -9.61 kcal/mol
effect on RNA-binding affinity of FBF-2 RBD (gld-1 FBEa RNA): decreased the RNA-binding affinity; also recorded: decreases RNA-binding affinity
-T∆S (FBF-2 RBD+CT Loop6A; replicate 1): 5.07 kcal/mol
∆G (FBF-2 RBD+CT Loop6A; replicate 1): -8.01 kcal/mol
∆H (FBF-2 RBD+CT Loop6A; replicate 1): -13.1 kcal/mol
-T∆S (FBF-2 RBD+CT Loop6A; replicate 2): 3.59 kcal/mol
∆G (FBF-2 RBD+CT Loop6A; replicate 2): -7.91 kcal/mol
∆H (FBF-2 RBD+CT Loop6A; replicate 2): -11.5 kcal/mol

AUCAUGUGCCAUAC (ssRNA) [gld-1 FBEa RNA (EMSA)]
Kd [1]: 114 ± 10 nM
